What was measured:
Type in all cases: cell-based
[1] = system: Swiss 3T3 cells; test: MEKKCOOH-induced cell death after nuclear microinjection of expression plasmids
Experimental: (§1) Swiss 3T3 and REF52 cells were plated on acid-washed glass cover slips in Dulbecco's Modified Eagle's Medium (DMEM) and 10% bovine calf serum (BCS) or newborn calf serum (NCS). Cells were placed in DMEM/0.1% calf serum for overnight incubation prior to microinjection and used for injection at 50-70% confluence. Injections were performed with an Eppendorf automated microinjection system with needles pulled from glass capillaries on a vertical pipette puller (Kopf, Tujunga, Calif.). Cells were injected with pCMVβ-gal in the presence or absence of pCMV5MEKKCOOH or pCMV5BxBRaf at 20-100 ng/μl for each expression plasmid in 100 mM KC1, 5 mM NaPO4, pH 7.3. Following injection cells were placed in 1% NCS for 12-18 hr (Swiss 3T3) or 42 hr (REF52) prior to fixation with paraformaldehyde and staining. Similar results were obtained when cells were placed in 10% NCS after microinjection. Propidium iodide ([…]) was used to stain DNA. X-Gal reactions were performed for six hr.
Swiss 3T3 cells were microinjected with 100 ng/μl pCMVβ-gal and 20 ng/μl pCMV5MEKKCOOH. To label free DNA ends fixed and rehydrated cells were incubated with terminal deoxytransferase (TDT) and 10 nM biotin-dUTP following the manufacturer's instructions (Boehringer-Mannheim). Cells were stained with FITC-streptavidin to label DNA fragments. β-gal was detected using rabbit anti-p-gal antibody (Cappel Labs) and a rhodamine-labeled goat anti-rabbit antibody (Cappel Labs).
Seventeen hours after injection cells were fixed and stained for, β-galactosidase activity with X-Gal. Injected cells attached to the coverslip were scored as positive for cell death when they were highly condensed, small round cells.

[2] = system: REF52 cells; test: Cell morphology after microinjection of expression plasmids; details: microinjected REF52 cells
Experimental: as §1

[3] = system: Swiss 3T3 cells; test: UV-induced apoptosis in Swiss 3T3 clones with IPTG-inducible MEKKCOOH; details: two hours after ultraviolet irradiation
Experimental: FIG. 16. Induction of MEKKCOOH expression by IPTG in Swiss 3T3 cells increases the number of condensed cells and stimulates c-Myc transactivation. In panel A, cells were incubated in the presence or absence of 5 mM IPTG for forty eight hours. Cells were stained with acrodine orange and condensed cells quantitated per 1000 cells counted per coverslip. In panel B Swiss 3T3 cells with inducible MEKKCOOH were incubated in the presence or absence of IPTG. The indicated cells were then exposed to UV-C irradiation and then fixed and stained with propidium iodide. The percentage of apoptotic cells was enumerated.
Because stable expression of MEKKCOOH appeared to inhibit clonal expansion of Swiss 3T3 cells under G418 drug selection, clones were isolated having inducible expression of the kinase. The Lac Switch expression system (Stratagene) was used to control the expression of MEKKCOOH. Several independent clones were isolated and their properties analyzed in the presence or absence of IPTG-induced expression of MEKKCOOH. The parental LacR+ clone expressing only the Lac repressor was used as the control. […] This is probably due to a basal level of MEKKCOOH expression in uninduced cells. […] This maybe related to selection of cells during the cloning procedure that adapted to a low, constitutive level of MEKKCOOH expression. […]

[4] = system: Gal4/Elk-1; test: Gal4-TK-luciferase transactivation analysis, Gal4/Elk-1; details: expression in Swiss 3T3 cells
Excerpt: Swiss 3T3 cells were transfected using calcium phosphate or lipofectamine with the reporter plasmid Gal4-TK-luciferase, which contains four Gal4 binding sites (Sadowski, I., et al. (1988). Nature 335, 563-564). adjacent to a minimal thymidine kinase (TK) promoter that controls expression of luciferase, in the presence or absence of activator plasmids encoding Gal4(1-147)/Myc(7-101) (Gupta et al. (1993) Proc. Natl. Acad. Sci. USA 90:3216-3220), Gal4(1-47)/Elk-1(83-428) (Marais, et al. (1993) Cell 73:381-393) or Gal4(1-147)/c-Jun(1-233) Hibi et al. (1993) Genes & Development 7:2135-2148). Transfections included pCMV5 without a cDNA insert (basal control), pCMV5MEKKCOOH and in some experiments pCMV5BxBRaf. Cells were incubated for 24-48 hr after transfection, lysed and assayed for luciferase activity. Values were normalized to equivalent μg protein for all experiments.

B1: MEKKCOOH: a truncated activated form of MEKK1 including the entire kinase domain (protein)
chain: MAMSASQDALPIVPQLQVENGEDIIIIQQDTPETLPGHTKAKQPYREDAEWLKGQQIGLGAFSSCYQAQDVGTGTLMAVKQVTYVRNTSSEQEEVVEALREEIRMMGHLNHPNIIRMLGATCEKSNYNLFIEWMAGGSVAHLLSKYGAFKESVVINYTEQLLRGLSYLHENQIIHRDVKGANLLIDSTGQRLRIADFGAAARLASKGTGAGEFQGQLLGTIAFMAPEVLRGQQYGRSCDVWSVGCAIIEMACAKPPWNAEKHSNHLALIFKIASATTAPSIPSHLSPGLRDVAVRCLELQPQDRPPSRELLKHPVFRTTW
[1]; 100 ng/μl plasmids, seventeen hours after injection, X-Gal
  Condensed Cells (percent of cells injected): Approximately 84%
[1]; 18 hrs postinjection
  cells with cytoplasmic and nuclear morphology characteristic of apoptosis: Greater than 80%
[1]; microinjected Swiss 3T3 cells
  DNA fragmentation (TDT, biotin-dUTP, streptavidin-FITC): significant DNA fragmentation
  induction of cell death on expression (in words): resulted in significant cell death
[2]
  cytoplasmic and nuclear morphology: dramatic cytoplasmic shrinkage and nuclear condensation
[3]
  cells morphologically highly condensed, appearing apoptotic: greater than 30%
[4]
  transactivation function of Elk-1: markedly activated

— patent publication US20080201790A1, “Method and product for regulating cell responsiveness to external signals” (priority 1993, published 2008)
